Measurements taken from the supplement of paper PMC10065799, “High-throughput profiling of sequence recognition by tyrosine kinases and SH2 domains using bacterial peptide display” (eLife, 2023).

Columns and labels:
Grb2 SH2 = Grb2 SH2 (UniProt P62993); assay: SH2 binding enrichment of the phosphorylated peptide, bacterial display (enrichment ratio); higher = better substrate or ligand; peptides without Tyr show the background
c-Src SH2 = assay: as above
SHP2-C SH2 = assay: as above
FGFR1 = FGFR1 (UniProt P11362); assay: phosphorylation enrichment, bacterial display (enrichment ratio); higher = better substrate or ligand; peptides without Tyr show the background
FGFR1, sequence (P11362 whole entry, looked up): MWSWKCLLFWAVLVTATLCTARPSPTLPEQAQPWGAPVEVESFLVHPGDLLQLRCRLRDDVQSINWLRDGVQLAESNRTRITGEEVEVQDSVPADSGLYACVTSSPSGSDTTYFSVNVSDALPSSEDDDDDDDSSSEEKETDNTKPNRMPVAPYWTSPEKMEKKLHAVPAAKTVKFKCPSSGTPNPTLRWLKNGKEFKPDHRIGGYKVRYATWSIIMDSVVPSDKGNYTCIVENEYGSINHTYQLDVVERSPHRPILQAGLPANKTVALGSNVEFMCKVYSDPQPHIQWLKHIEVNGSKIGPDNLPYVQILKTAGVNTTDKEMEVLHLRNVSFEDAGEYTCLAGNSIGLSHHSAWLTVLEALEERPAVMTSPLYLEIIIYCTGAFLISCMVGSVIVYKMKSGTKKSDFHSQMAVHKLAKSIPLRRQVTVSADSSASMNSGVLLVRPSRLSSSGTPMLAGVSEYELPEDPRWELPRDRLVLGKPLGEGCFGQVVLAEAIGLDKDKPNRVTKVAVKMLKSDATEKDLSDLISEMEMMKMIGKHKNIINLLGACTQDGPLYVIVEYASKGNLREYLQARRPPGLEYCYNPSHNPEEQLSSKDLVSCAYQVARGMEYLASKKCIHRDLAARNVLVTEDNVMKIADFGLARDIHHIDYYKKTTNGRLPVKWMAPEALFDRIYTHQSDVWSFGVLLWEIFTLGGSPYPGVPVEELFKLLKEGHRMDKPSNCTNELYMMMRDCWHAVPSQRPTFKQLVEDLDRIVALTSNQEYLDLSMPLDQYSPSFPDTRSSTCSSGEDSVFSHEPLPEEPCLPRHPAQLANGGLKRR

Fer (mouse) = assay: as above
EPHB1 = EPHB1 (UniProt P54762); assay: as above
EPHB1, sequence (P54762 whole entry, looked up): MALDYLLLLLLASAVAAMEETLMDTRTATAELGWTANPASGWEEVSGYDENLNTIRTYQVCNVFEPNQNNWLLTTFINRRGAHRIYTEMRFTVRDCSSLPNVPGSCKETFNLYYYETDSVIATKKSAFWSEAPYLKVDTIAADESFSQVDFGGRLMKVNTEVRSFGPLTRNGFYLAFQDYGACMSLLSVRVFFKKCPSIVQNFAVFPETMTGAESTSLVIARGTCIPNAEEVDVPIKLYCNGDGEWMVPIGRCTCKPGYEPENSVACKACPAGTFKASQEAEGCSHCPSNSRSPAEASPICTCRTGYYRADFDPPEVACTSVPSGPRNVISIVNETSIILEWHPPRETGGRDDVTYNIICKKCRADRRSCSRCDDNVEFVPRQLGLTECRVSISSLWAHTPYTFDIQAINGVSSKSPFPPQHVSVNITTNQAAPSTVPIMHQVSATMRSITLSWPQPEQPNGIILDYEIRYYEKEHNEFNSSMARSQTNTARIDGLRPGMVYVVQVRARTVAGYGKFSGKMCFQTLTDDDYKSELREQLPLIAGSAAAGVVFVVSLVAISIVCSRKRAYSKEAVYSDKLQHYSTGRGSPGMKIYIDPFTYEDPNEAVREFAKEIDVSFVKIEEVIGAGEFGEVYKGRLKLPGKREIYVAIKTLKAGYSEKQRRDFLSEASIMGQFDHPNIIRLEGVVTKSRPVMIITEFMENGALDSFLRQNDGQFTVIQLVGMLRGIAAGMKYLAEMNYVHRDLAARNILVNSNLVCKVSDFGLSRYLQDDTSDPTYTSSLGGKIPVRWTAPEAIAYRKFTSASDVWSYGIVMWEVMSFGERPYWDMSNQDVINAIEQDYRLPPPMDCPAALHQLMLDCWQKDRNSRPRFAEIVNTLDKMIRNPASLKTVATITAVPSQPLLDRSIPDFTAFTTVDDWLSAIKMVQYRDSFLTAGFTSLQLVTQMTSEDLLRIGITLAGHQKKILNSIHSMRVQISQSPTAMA

FGFR3 = FGFR3 (UniProt P22607); assay: as above
FGFR3, sequence (P22607 whole entry, looked up): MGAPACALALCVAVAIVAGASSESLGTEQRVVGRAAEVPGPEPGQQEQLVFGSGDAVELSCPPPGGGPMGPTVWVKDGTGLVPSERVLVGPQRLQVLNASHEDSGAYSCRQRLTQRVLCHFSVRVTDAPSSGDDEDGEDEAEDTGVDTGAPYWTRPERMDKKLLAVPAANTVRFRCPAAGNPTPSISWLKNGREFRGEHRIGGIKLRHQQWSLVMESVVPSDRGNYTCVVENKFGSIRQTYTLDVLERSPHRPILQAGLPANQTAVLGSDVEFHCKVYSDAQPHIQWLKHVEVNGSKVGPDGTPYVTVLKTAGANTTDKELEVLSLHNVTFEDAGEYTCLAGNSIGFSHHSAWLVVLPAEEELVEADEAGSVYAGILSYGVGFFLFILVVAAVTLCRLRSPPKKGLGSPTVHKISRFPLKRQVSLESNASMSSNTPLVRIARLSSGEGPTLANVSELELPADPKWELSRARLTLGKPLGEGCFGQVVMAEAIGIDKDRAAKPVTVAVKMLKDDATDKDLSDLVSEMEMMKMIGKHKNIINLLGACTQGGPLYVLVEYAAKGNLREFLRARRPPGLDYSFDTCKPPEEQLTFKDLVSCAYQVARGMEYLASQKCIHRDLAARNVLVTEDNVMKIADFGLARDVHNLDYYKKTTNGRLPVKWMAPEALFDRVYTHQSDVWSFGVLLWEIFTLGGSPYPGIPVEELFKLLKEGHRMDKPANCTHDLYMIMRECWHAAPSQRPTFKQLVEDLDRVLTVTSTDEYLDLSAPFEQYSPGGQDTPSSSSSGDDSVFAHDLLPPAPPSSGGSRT

Fes = Fes (UniProt P07332); assay: as above
c-Abl (mouse) = assay: as above
EPHB2 = EPHB2 (UniProt P29323); assay: as above
EPHB2, sequence (P29323 whole entry, looked up): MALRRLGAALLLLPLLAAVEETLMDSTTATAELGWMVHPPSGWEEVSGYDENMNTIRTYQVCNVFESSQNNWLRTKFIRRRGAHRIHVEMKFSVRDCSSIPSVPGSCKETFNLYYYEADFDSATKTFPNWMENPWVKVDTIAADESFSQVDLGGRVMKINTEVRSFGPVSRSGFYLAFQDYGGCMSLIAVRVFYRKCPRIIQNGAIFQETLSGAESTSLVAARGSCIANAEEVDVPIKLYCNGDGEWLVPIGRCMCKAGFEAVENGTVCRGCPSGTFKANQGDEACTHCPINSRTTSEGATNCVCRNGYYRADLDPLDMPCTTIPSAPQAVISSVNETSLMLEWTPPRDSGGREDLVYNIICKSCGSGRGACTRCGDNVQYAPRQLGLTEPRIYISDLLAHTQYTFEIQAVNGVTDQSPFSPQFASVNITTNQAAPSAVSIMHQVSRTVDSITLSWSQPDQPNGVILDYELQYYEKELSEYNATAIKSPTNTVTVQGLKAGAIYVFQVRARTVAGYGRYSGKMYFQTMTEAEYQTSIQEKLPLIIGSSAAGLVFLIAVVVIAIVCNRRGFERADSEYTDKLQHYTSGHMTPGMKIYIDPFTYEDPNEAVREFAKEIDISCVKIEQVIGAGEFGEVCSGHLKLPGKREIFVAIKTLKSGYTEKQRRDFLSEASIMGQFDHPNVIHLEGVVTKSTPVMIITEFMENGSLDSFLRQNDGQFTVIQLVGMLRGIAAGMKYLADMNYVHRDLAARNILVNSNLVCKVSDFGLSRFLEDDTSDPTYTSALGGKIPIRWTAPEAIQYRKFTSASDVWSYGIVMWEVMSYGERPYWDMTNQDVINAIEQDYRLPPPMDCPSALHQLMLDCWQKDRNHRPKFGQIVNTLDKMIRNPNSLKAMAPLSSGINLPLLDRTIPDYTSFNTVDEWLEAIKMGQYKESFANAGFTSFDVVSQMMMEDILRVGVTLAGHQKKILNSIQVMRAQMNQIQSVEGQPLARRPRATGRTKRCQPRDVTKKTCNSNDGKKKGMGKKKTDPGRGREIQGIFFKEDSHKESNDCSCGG

AncSZ = assay: as above
Fyn = Fyn (UniProt P06241); assay: as above
Fyn, sequence (P06241 whole entry, looked up): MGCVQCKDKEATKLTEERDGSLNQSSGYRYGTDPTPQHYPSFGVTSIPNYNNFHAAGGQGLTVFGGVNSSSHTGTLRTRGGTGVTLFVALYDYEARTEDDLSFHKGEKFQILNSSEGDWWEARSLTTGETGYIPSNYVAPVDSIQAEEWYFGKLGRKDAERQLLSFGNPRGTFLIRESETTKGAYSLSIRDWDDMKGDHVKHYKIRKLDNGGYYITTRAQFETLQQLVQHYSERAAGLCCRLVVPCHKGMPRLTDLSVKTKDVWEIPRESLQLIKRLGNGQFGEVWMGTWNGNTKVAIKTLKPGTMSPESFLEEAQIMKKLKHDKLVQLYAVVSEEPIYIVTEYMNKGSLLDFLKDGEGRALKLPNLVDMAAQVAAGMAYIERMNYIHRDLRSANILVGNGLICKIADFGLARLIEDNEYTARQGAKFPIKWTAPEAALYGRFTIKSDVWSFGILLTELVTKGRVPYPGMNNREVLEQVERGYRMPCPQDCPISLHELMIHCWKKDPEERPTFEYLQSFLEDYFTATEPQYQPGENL

Jak2 = Jak2 (UniProt O60674); assay: as above
Hck = Hck (UniProt P08631); assay: as above
Hck, sequence (P08631 whole entry, looked up): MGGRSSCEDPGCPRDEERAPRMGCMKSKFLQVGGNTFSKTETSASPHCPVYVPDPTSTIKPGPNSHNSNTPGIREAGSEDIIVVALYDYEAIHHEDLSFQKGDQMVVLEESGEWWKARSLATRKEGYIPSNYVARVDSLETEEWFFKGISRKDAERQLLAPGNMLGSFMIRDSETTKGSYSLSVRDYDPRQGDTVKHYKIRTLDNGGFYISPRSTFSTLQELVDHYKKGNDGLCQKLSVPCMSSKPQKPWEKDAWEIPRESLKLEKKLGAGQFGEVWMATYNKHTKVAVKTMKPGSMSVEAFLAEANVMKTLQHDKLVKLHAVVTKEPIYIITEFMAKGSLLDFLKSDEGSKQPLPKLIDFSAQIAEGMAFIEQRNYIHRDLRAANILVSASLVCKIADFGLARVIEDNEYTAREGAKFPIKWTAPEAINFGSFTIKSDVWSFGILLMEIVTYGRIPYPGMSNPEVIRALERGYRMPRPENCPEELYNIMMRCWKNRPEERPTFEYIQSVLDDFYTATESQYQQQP

MERTK = MERTK (UniProt Q12866); assay: as above
c-Src = assay: as above
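Wherever SH2 binding enrichment of the phosphorylated peptide, bacterial display is given: peptide library displayed on the E. coli surface as eCPX fusions, selected cells deep-sequenced, score is each peptide's frequency after selection divided by its frequency in the input.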
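Wherever phosphorylation enrichment, bacterial display is given: 11-residue human phosphosite peptides and single-mutation variants displayed on the E. coli surface, counted by deep sequencing, each peptide's frequency after selection divided by its frequency in the unselected input library; frequency after pTyr selection over input frequency; kinase dosed for 20-30% of maximal phosphorylation in three min.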

Grb2 SH2, sequence (P62993 whole entry, looked up): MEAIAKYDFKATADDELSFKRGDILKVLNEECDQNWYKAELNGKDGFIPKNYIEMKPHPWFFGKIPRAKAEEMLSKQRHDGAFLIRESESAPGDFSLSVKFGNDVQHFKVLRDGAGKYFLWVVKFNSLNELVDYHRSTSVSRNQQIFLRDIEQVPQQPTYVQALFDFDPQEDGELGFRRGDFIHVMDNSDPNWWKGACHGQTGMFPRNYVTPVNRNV

Sequence	SH2 binding enrichment (Grb2 SH2)	SH2 binding enrichment (c-Src SH2)	SH2 binding enrichment (SHP2-C SH2)	phosphorylation enrichment (FGFR1)	phosphorylation enrichment (Fer (mouse))	phosphorylation enrichment (EPHB1)	phosphorylation enrichment (FGFR3)	phosphorylation enrichment (Fes)	phosphorylation enrichment (c-Abl (mouse))	phosphorylation enrichment (EPHB2)	phosphorylation enrichment (AncSZ)	phosphorylation enrichment (Fyn)	phosphorylation enrichment (Jak2)	phosphorylation enrichment (Hck)	phosphorylation enrichment (MERTK)	phosphorylation enrichment (c-Src)
IKIMGYFIRTI [IDS_Y490_S491F]	1.82	1.04	1.5	0.479	0.547	0.432	0.785	1.08	0.813	0.561	0.932	0.402	0.93	0.497	0.514	0.424
DYTEAYNSKIK [CLK1_Y305_P307S]	0.587	1	0.582	0.514	0.377	0.446	0.585	0.969	0.584	0.449	0.897	0.339	0.965	0.382	0.454	0.492
HSLLQYGGSAN [ANK1_Y624_R619H]	0.862	0.367	0.661	0.316	0.447	0.421	0.531	0.481	0.472	0.583	0.579	0.427	0.394	0.505	0.386	0.357
IIGNGYYFRVF [MYBPC3_Y1135]	0.852	0.472	0.651	0.374	0.413	0.628	0.79	1.16	0.775	0.619	1.08	0.327	1.46	0.373	0.318	0.335
DKTGEYPVPLT [ACADM_Y73_I78T]	0.924	0.474	0.522	0.426	0.397	0.502	0.578	0.902	0.57	0.438	0.863	0.487	0.649	0.382	0.44	0.448
CTTIHCNFMCN [TP53_Y234_Y234C_YF]	1.22	0.837	0.889	0.45	0.454	0.67	0.574	0.869	0.629	0.546	0.782	0.419	0.862	0.446	0.441	0.441
IKELTYQTEED [MYH7_Y1852]	0.879	0.52	0.832	0.54	0.635	0.591	0.773	1.33	0.753	0.612	1.27	0.579	1.1	0.604	0.441	0.467
RFLRGYRQDAF [HLA-A_Y137_YF]	1	0.559	0.888	0.569	0.658	0.742	0.677	1.01	0.708	0.47	0.644	0.489	0.498	0.802	0.799	0.413
SVVVPCEPPEV [TP53_Y220_Y220C]	1.02	0.571	0.886	0.517	0.525	0.534	0.678	1.18	0.834	0.671	0.998	0.438	1.04	0.517	0.459	0.481
SLLLSYFLIKW [NUP160_Y773_P768S_YF]	1.3	1.15	0.978	0.732	0.719	0.691	1.08	1.46	1.05	0.788	1.56	0.589	1.51	0.654	0.514	0.512
VFGVSYDEFRF [CFTR_Y512_I507V_YF]	0.984	0.859	1.09	0.452	1.98	0.578	0.736	1.13	0.823	0.577	1.09	1.13	1.4	1.25	0.799	2.83
AGTILSHAHLD [ASS1_Y291_Y291S]	0.696	0.374	0.55	0.364	0.374	0.788	0.546	0.847	0.622	0.459	0.75	0.367	0.707	0.412	0.289	0.384
HHTDECEFDEL [TGM1_Y134_Y134C_YF]	1.12	0.585	0.628	0.605	0.463	0.423	0.545	1.1	0.858	0.426	1.07	0.488	1.05	0.586	0.471	0.727
AGLVQYFMEHH [PTPN11_Y80_E76G_YF]	0.844	0.599	0.845	0.538	0.474	0.655	0.782	1.12	0.741	0.592	0.955	0.513	0.962	0.565	0.456	0.452
EVESPYEVRDF [GIGYF2_Y1168_H1171R_YF]	0.888	0.45	0.616	0.655	9.13	1.01	0.942	1.71	1.09	0.951	1.57	7.49	1.63	2.04	0.809	6.73
VAFLYYKSIGP [ADGRL4_Y302_V300L]	0.771	0.341	0.633	0.531	0.589	0.78	1.09	1.54	1.43	0.776	1.21	0.45	1.44	0.625	0.389	0.392
